Source: PMC10502629

Assays:
[1] = molecular target: SC-AaLS (SpyCatcher fused to the N-terminus of Aquifex aeolicus lumazine synthase) (Aquifex aeolicus); assay: covalent SpyCatcher/SpyTag conjugation read by SDS-PAGE; purified SC-scaffolds incubated with ST-OVAT in conventional buffer without any enzyme (4 °C, 16 h in Figure 3e); conjugates purified by SEC, SDS-PAGE with Coomassie staining; reactivity kept after heating at 75 °C or 5 x …
[2] = molecular target: SC-A0A4 (SpyCatcher fused to the N-terminus of the AaLS homologue A0A497XTC1 of Hydrogenivirga caldilitoris) (Hydrogenivirga caldilitoris); assay: as above

percent conjugated [1]: 100% | percent conjugated [2]: 100%
Substance: ST-OVAT (SpyTag fused to the N-terminus of ovalbumin T epitopes) (peptide)
